Source: the supplement of paper PMC9170038

System: MS2 coat protein
Assay: apparent KD of MS2 coat protein; higher = weaker reporter binding
Conditions: Eterna round: R107
Outline: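 For every design, apparent KD is the median of normalised binding-curve fits from its clusters. The RNA switches were transcribed on-chip from Illumina sequencing clusters and titrated with SNAP-549-labelled MS2 coat protein (twofold steps, 0.7 or 1.5 nM to 3 µM; 0.8–1.5 h to 10–20 min per step). Titrations used 100 mM Tris-HCl pH 7.5, 80 mM KCl, 4 mM MgCl2, without or with constant ligand.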

[1] = input ligand: theophylline 20 uM
[2] = input ligand: theophylline 2 mM
[3] = input ligand: tryptophan 2.4 mM

| Sequence | apparent KD of MS2 coat protein (input ligand: arginine 13.2 mM) | apparent KD of MS2 coat protein (input ligand: none) | apparent KD of MS2 coat protein [1] | apparent KD of MS2 coat protein [2] | apparent KD of MS2 coat protein [3] |
| --- | --- | --- | --- | --- | --- |
| CUCCUGUGAGCGGCCGCCACUGGAGGCCUCGCGCGACAUGAGGAUCACCCAUGUUGGCCCGGCCUCAGGACCGGGUUCGCGCGAG [Same State - Tryptophan B Attempt #4 (HarryS)] | 7.89 nM | 11.1 nM | 15.4 nM | 10.7 nM | 10.9 nM |
| AUGUUUGUGUGAGAUACCAGUGAGGCCACAUGAGGAUCACCCAUGUCCCUCACUCCGGCCCACCCUUGGCAGCUCUUAUAGUAAA [Exclusion Theophylline B GF 25] | 12 nM |  | 12.9 nM |  | 10.4 nM |
| AGGACGGUCGGAAGGAGCGGUACAUGAGGAUCACCCAUGUACUCCUGGGCAUCCGUAGUGUGCCAGGUAGGUCGCCGAUUGCGGG [XArg-B8] | 12.1 nM | 12.1 nM | 19.8 nM | 21.5 nM | 16.2 nM |
| UGUCGAAACUGAAGGAGCGAGAUGACAACAUUGGGUCUAACAUGAGGAUCACCCAUGUAAUCUCAGGUAGGUCGCAGUGACAAAA [Exclusion Arginine B GF 15] | 64.5 nM | 94.7 nM | 123 nM | 133 nM | 121 nM |
| CUCGAGUUAUGAGAUACCAGACUAUAGUUUACAUGAGGAUCACCCAUGUUAUGGGUGGUGGUCCCUUGGCAGCUCAUAUGUUUAA [#08 Exclusion-TheophyllineB] | 105 nM |  | 220 nM |  | 85.1 nM |
| UAUCGUCAGACGGCCGCCACUAGAACAUGAGGAUCACCCAUGUACGGCCGCCCGGUGUGAUCCACUAGGACCGGGUCUGACGAAU [(Trp1)-(Ms2)-(T)'-(M)'-(Trp2)_Design23] | 39.3 nM | 66.8 nM | 77.9 nM | 95.7 nM | 53.8 nM |
| AGAUGAGUCACGGCCGCCACUCUUCACAGGUUCACCCUUGGUUAACAUGAGGAUCACCCAUGUGGGAGGACCGGGUGAUGAGCAU [XTryp B #5] | 14.2 nM |  | 17.3 nM | 15.6 nM |  |
| GGUAUUGGAACAGAUACCAGUAUCUGUUGAUCCUACAUGAGGAUCACCCAUGUUAGAAAGUACCCUUGGCAGCUGUAAUAAUGCC [Theo B Ex t1] | 52.7 nM |  | 76.6 nM |  | 49.4 nM |
| GUAAUGAUAAGAAGGAGCGUCGAAAAUGGGUAAACAUGAGGAUCACCCAUGUAAAGGGAACGACAGGUAGGUCGCUUAUUAUUAC [AstromonsSSArgB#21] | 126 nM | 207 nM | 356 nM | 203 nM | 210 nM |
| AAUUAUCAGUCGGCCGCCACUGACACAUGAGGAUCACCCAUGUAACUUGGGAUAAAUUUAAUAAACAGGACCGGGACAAAGGCUA [JR_ExcTryptoB_Sub011] | 36.6 nM |  | 50.7 nM | 49.9 nM |  |
| GUAGCGACGGCGGCCGCCACUCGCACGUGAGGGUAGACCAACCUUCACAUGAGGAUCACCCAUGUGAGGACCGGGCUGUCGCUAC [#15 Exclusion Tryptophan B] | 17 nM | 23.8 nM | 30.4 nM | 25.4 nM | 46.4 nM |
| UGUAUGUGAUUUGAUACCAGACCAACUGGUAAAACAUGAGGAUCACCCAUGUAAACUUGGGUCCCUUGGCAGCAAAUCGCAUACU [SSTheo B #22] | 67.8 nM |  | 45.6 nM |  | 82.7 nM |
| UUAAUCAUUAUAGAAAACUAUAAUGCAGAAGGAGCGUGAUAAAACACAGGUAGGUCGCUGAAGGGAACAUGAGGAUCACCCAUGU [AstrosSSArgA#6] | 21.3 nM | 30.3 nM | 37.8 nM | 39.4 nM | 28.8 nM |
| AGCGACAUGCGUGAUACCAGCUACAUGAGGAUCACCCAUGUCAGUAGGAAACUACUGUGUAGCCCUUGGCAGCACAGUGCAUGUC [Exclusion - Theophylline B (Freestyle 26)] | 12.3 nM | 16.4 nM | 31.9 nM | 30.2 nM | 17.7 nM |
| CUUGUCGUAACUGAUACCAGUGUACUGACAUGAGGAUCACCCAUGUUGGGUUUUGUUGUACACCCUUGGCAGCAGAAUCGAUAAG [AstrosExyTheB#9] | 68.8 nM |  | 95.3 nM |  | 71.3 nM |
| UAUAUAUAUCACUAACUGUUCUUGAGGUCUCGAGGACCGGUACGGCCGCCACUCGGGCCGCCUCACAUGAGGAUCACCCAUGUCC [XTryp A #3] | 38.9 nM |  | 94.8 nM | 89.4 nM |  |
| GGAUAGGACACGGCCGCCACUACCUAGGAUACUAGCAACAUUUGGGUACAUGAGGAUCACCCAUGUAGGACCGGGUGUCCUAUCG | 31.9 nM | 25.3 nM | 34.2 nM | 28.4 nM | 124 nM |
| AUAACAUGAGGAUCACCCAUGUAAGGUGAUACCAGACGAAGUAAAGUCCCUUGGCAGCACAAGCAUAGUUGCGAAUAUUGAUAGA [JR_SSTheophyA_Sub005] | 264 nM |  | 532 nM |  | 632 nM |
